Reference: the domain aggregation screens of Martell et al. (2025)

Assay: soluble fraction after stress (log2 fold change); higher = more stays soluble; pooled small domains, quantitative proteomics
Settings: stress: pH 4
Outline: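 Aggregation propensity is estimated from the fold change in each domain's soluble amount after acid stress. Pooled small-domain libraries were stressed at pH 4, and higher log2 values mean more stayed soluble.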

Row | Sequence | soluble fraction (log2)
1 | HMNVDALVGMPARVTRAFVQGAGEVKLDNGETWTARLSAGVTDAEASVGQTVSVIAVRGAAVEVAPE | 0.158
2 | HMNVDSLIGKKARVLEDIDNLNAKGQVSIDGMEWTARSEDGSEIKKDALVEVVAIEGVKAIVKQ | -0.127
3 | HMNVEQQNQARENIKRLMEEQGLSQPKLSEKAGIAFGTLSRILRGKQDLTIQTAEKIADALGLSVYDLAE | 0.247
4 | HMNVKVSVDDIARPGLMASGRVTFADGNRGMWYVDEMGRLGIDPEVEGYQPSEADIQAFQRELQSVMES | -0.927
5 | HMNVNSQQINDLEKSIQKFFDKDIKNYLNQNLSNDRMISKNEIDKIILLYYGSDKEPTLDEIKSIFN | -1.19
6 | HMNVNTHKTLILNSTFQPLSLATPQRALALLFSKKINVLKESDIKLRSVGQSVAIPKVAVLTYFVKA | 0.132
7 | HMNVPFGYTIKDGLLVEQPDEKAILDNILTWKKGQMTVAEIAKKTGMETWKIYGILNYWRNK | -0.438
8 | HMNVRAYKVSKESELTVEEKLEAVRGYGVADLLYVIREFEENPGKYEPEVIKLIVQQLTDKGIM | -0.94
9 | HMNVRRSRTHEKVTTYQGYDIFINKEPNQRGMFTSAPMRGDNEYSNLRGEGKSKQDAVNMTKEKIDEIAA | 0.229
10 | HMNVSVSITKELQVYINDERISSSALESTLKSKLAGIENPTIILRAEEGVPIEKAVNVMDIANRNRYKIVL | -0.969
11 | HMNVYAGTMINVVGLQVEDAASRLRGLFYSVKIVEEESQEPDGKVLRQNIAEGTKDLEAWTLVELTVSKYV | -0.448
12 | HMNVYEVKFGDTLDEIIKTYLFDIPVKKSILRQAVILANPHAFRRNNPHWMYSDRQLKLPELQDIRRAIF | -0.74
13 | HMNYGDVIEGQIMHVDRDELLVDIGSKSEGIIPAREFSTLTDEERAALSVGDHVLVFVVQAENQEGQAV | 0.0111
14 | HMNYIEWKNTFKKYLYLLPIKEEKETLAYFDEQYNKLNPKDLDNVENIFSDPIDKAAFVVAFYLEMEDEIK | -0.802
15 | HMNYIGADAAKNMAAADAQVDTANASFSGANLGEKNGLSYYQVDFTANGREYHYAIDAMTGTVIESSSAAS | -0.0522
16 | HMNYNEKGEYTRTLTSGSETAVMTYRNFGETLDVALFKNGVQTDSLRLIKSEPGVLYRQSNGQFEKI | -0.0181
17 | HMNYSIVNVGFNNKSLFLRSAPGYSASRLLLPFATERAFVRETLSNGWSRVIVRGTEGYLPTEYVAD | -0.553
18 | HMNYSKQRETILKVLRSTRSHPSVNWIYENVKKEIPDVGLATVYRNLKQLEAAGEIMRIQGDFPEERWDGF | -0.587
19 | HMNYTALLNNFSENMKKRRVELSLSQKELASIVGVSVRTIQNYENKKTIPTSAVMESISIALDMGLEKMID | 0.04
20 | HMNYTQAQIDRANAVSLEDFLRTQGETLIKSGREYRWKEHDSLTVRGNKWFRHSQSKGGYPIDFVMEFTA | -0.0561
21 | HMNYYYKDNQYWYVGFRYDERLVKEIKRFVGAGYNPENKEWYIPFTLPTVAPLQKWLHDNGFVEGMNYYP | -1.31
22 | HMPAAFALLTDREREIAALIAQRLTNREIAEKLYLSEGSVKQYVNQLYAKLGIEGDTRTKRRRLAEQAK | 0.12
23 | HMPAAKARTWQEATHAFQRDFLLETLRRARFNAADAADQLGLARPALYTTAKRLGLDLVAERQRWEAEAH | 0.043

Row | Sequence | soluble fraction (log2)
24 | HMPAAPVFLQKDLLDAGLIGQADSAARREKLGKILGIGYGNGKVMLQRLNSFGIERDAFEQAVQE | -0.195
25 | HMPAASDALAGELAQIARLDIAKLLAGDLSEADWSRITSATVQLSERHPDASDELTALVERIDTAYSARAT | -1.32
26 | HMPAEGWEASGDTWRYRQKDGSYITNAWVQDTDGKWYYFDESSLMVRNQTTSDGYYVGEDGVWTET | -1.83
27 | HMPAELGVVVRNANLRSGPGTKYAIVGSAPAGTTVRIAGTNKAGDWYHLSSGRWIAAFLVDRN | 0.34
28 | HMPAERLSMRKIYEILRLKYGHGLSNREVALSVSVSRSTVADYLLRAQAAGLSWPLPDGLDETGLEQRLFP | -0.572
29 | HMPAFGALTLRQRDLVELIAQGLDNSQIAARLGLAEKTVRNHITMIFNKLEMENRSQVIVRARESGFGAVR | -0.228
30 | HMPAKIIKKSFVYNPIHRDTEYLAQFLQGEGQVSASGDKLVYYGTVEDISRIKSVLQSVDTPS | -0.434
31 | HMPALATKDSVLDGRAEVVSYVRDTSVFYLRVRVPQKQGYRSRRIDGVSTLPEAITKALDTYMDLGT | -1.02
32 | HMPALELLVESKKPLLIHGEKIAEDINLFDREKYFIDDELIRIVKEFPSLKIILEHVSSKYGAD | -1.59
33 | HMPAMYKAERMNQILSILADQGDVDVGTLARQFGVSLVTIRKDLTYLESSGQLVRTHGGAIAVA | -0.26
34 | HMPASVEYIRLAAEQMTGQQVTIIEQPGNYAFILRIHLNDIYSLDLAALRARIDELKPAHLTYTVEQYD | -1.85
35 | HMPATTMMVVVDRDLPYGHVLTDRDVRLETRRATSPGASVAFTSIDPVLGQSLTRPLGAGTPVGRADLR | -0.151
36 | HMPAVVEFDVKPRGEVLVDGIWYGRIPELREVELRPGRHHLRVQNAGHPSLDLVVTLEPGERMTVTHTFA | -0.33
37 | HMPDAENFRYRVPYTTEQNRLQYYEGDIRAENADKARDQVMQDAQKYFAQNTAFTPNYIDTDIISLD | -0.615
38 | HMPDFAENAVYGKQREDSLYAHAYKHFQLGDTTTVRAAEHLSAEIYPLGQHRPKFMFLNAVTR | 0.22
39 | HMPDITAAVARTLQALRADRGWSLDQLAARSGVSKGVLVALEQGRSNPNLATLARIGDAFGVPVTLLVDL | -0.196
40 | HMPDPHSEARNIVLNQLNFMPRSRKELETALAKRNIEADVAKIVLDRFEEIGMVDDAAYAEL | -1.2
41 | HMPDPLYLINGKIVNKSDFNNIDPRSIQSIEVLKANKALEAFGNDGKNGVIKITLKSSNDQM | 0.22
42 | HMPEEGPSEDGNSFTAKFKLGSDVQGAMEQADAAAKAGLQDAGKGTGQITSRAQVGGYIYSTATA | 0.22
43 | HMPEIFYRKIHRTDHDQIALDAEMIRLLIAIDEKKSLSQIAAEVQMEPMALKKNLGKLIQLGLVEPIK | -0.179
44 | HMPELSNNLDRDKVALKNFNESLKDGLTPAEAYANHLTNVSKAAQEAARQSNGLPVDIDKYHNSQLAASMA | ≥ 0.43
45 | HMPEMAIRTLRLRNQRGAAVAAEWSRITASLLELRQVEFVNPVDQLIVLKGPEPWAGVAEELVRQLDV | -1.02
46 | HMPEQLLNTRIPLEFAGRRFDASLAELFPDYSRSRLAAWIKDGAARLDGETVAPRHTVRGGEQVEILVRM | -0.13

Row | Sequence | soluble fraction (log2)
47 | HMPERLTYVHPDGAEPMRADKALAAFLSGRISRSRLLGSFSAGKVMAGGKPVEKKLLLRAGDALEVELPEP | 0.0894
48 | HMPERMLEPLLNGNEIMKVTQLQPGPKVGLIRDALLQAQISGDVTDTESAKAFVQDYAKRNI | 0.386
49 | HMPESETIMVDVKGAVQSEGVYELPSTARVNDAIEAAGGFSDQADKKSVNLAQKLSDEAVVYVASQGENV | -0.28
50 | HMPEVTMSYSARNQVVSFSKATQYEIVDEFGTVVLRGVGNQATLRYLSRGDYFVNFGAGTEVLKK | 0.089
51 | HMPEVYSFEVNEGAAGKRLDIFLSGEIEGLTRSFIQKLISEGMATVNQEPPRASYRVKTRDLVELQIPDPE | -0.309
52 | HMPFDWSAFDWKGWADEALAIIKTANQDQMNKWTEDNEKIIVQAETAAPDIYKTVGDEYDKKMESFN | 0.0448
53 | HMPFESEMKHWIHLFAHELNLKVSDKYTQKIIEIFGNNFSEIFNEMSKSSLVSSNEKDLLNALEKSGNIH | -0.862
54 | HMPFGIYGGKVSSLDDLKDKAAVLVPNDVSNEARALLLLEAQGLIKLKEGVGLEATRNDIVEN | -0.0596
55 | HMPFTLDGVNEGSRNDQAARMSGYLISKNLNMDFIKFFMQSWNRQNSPPLSQREINSVVDNVKRTHDRKNK | -0.697
56 | HMPGKVSDAGATAKDNRLFLEAVFWRVRTGSPWRDLPPAFGHWNSQFRRFRRWAKAGVFESLFNA | 0.179
57 | HMPGRKKLAIIYKNDYIGAFNLADSYRDSYEVSMYAFPKKVGKLLNRLELQGFNAYVIYDKDNEENNFNTI | 0.00545
58 | HMPGSGELSRRLELAIRDRTAVRVTAAAAGQERSFTLLPVAITSGRLRATDEQAGVQRTLPLSAIVAVEA | -0.135
59 | HMPGTEAQDGEVLLDALRRIHPDSSTGTLRRMLTQGRVQVDGTTVHAAKAELTSGQHVEVVAR | -0.0746
60 | HMPIDIEPVLQWIRDNSIDGIGPARSMYHSAAAAAGLPSYSSLQLRKWTWPLLLDAAGVQRR | -0.265
61 | HMPIRMLQVQKTNTGYLNVRDTPSVSGALIGKVFPGDMLSSTEERDGWFLVAVPQGGTGWVSGDYVKTTS | 0.0778
62 | HMPKAPHETLSRREMEVLLLLSEGVTLTRIGDTIHVSVKTVSTYRARILQKLDLQSNAELTRYVLQHKL | ≥ 0.43
63 | HMPKHDWDAFAGAIARRVHDHGMPVSQGELVRDMMDWFAGRKDFPPPDERTVRRKVSAIWRELNG | -0.292
64 | HMPKIPRLTLTETAGIMGVSQRALALAIQQGMYSWAQALPGRNKKRPIYFINAITFAKAQGIDLEEYK | -0.529
65 | HMPKKLIWERTTSKLQLYITQDRYELKTPLMTIPFTSKSKMMVYLQQRYHLDMQEYRQIYDAG | 0.0815
66 | HMPKMDGLTVMEQVNQDHFVNKRPYFIVITAVGQEKITEDAFNKGANYYVMKPFNNNMLLERIKSVRK | 0.0916
67 | HMPKYLNIYHELAQRIQEGALPAETKLPSETELMQEFEASRGTVRKAIDALQEKGFVRKHQGKGVFVLSQ | 0.152
68 | HMPLDYNELRSISPKAARQAILQILAANKGNVSATAKLLGVSRKTVYKAMHKKASGNLDDTSRAPK | 0.13
